# Measurements reported in PMC4932549, “Feasibility of Multiple Examinations Using ^68Ga-Labelled Collagelin Analogues: Organ Distribution in Rat for Extrapolation to Human Organ and Whole-Body Radiation Dosimetry” (Pharmaceuticals, 2016).
# Positions of bridges follow the written chain, without caps; N, C: chain ends. Residues, ends and D or L forms follow the SMILES beside them. *: point of attachment. NODAGA = O=C(O)CN1CCN(CC(=O)O)CCN(C(CCC(=O)*)C(=O)O)CC1; NOTA = O=C(O)CN1CCN(CC(=O)O)CCN(CC(=O)*)CC1; AEEA = NCCOCCOCC(=O)O
# Key:
# in vivo = details: rat; for SUV / SUV at 2 h: both sexes, Sprague-Dawley, total radioactivity; for SUV / SUV at 2 h / Uptake in most of the organs (SUV): iv; for SUV at 2 h: Uptake within 120 min in blood, heart, lung, pancreas, adrenal gland, small intestine, large intestine, testis, muscle and brain (SUV)
# Experimental: Animal studies were performed using healthy female and male Sprague–Dawley rats: one male and one female animal per time point and tracer (Table 1). The animal experiments were approved by the local Ethics Committee for Animal Research and performed in accordance with local institutional and Swedish national rules and regulations. The animals were kept at a constant temperature (20 °C) and humidity (50%) in a 12-h light-dark cycle and given free access to food and water.
# (§1) [^68Ga]Ga-NO2A-Col or [^68Ga]Ga-NODAGA-Col was injected into the tail vein of rats as a bolus with 500 µL phosphate-buffered saline (pH 7.4) as the vehicle (Table 1). The injected amount of the peptides was 0.8 ± 0.2 nanomoles. The animals were euthanized by a CO2–O2 mixture at 5, 10, 20, 40, 60 and 120 min post-injection. The radioactivity of the excised organs was measured in a well-type NaI(Tl) scintillation counter, applying correction for dead-time and radioactivity decay. The weight of the tissues was determined simultaneously. The remaining carcass was also measured in order to monitor the radioactivity elimination and recovery. Samples from blood, heart, lung, liver, spleen, adrenal glands, kidneys, intestines, with or without contents, muscle, testis, bone, brain, pancreas, urine bladder and bone marrow were collected. The radioactivity readings were decay-corrected to the time of the injection, and the results were expressed as standardized uptake values (SUV; Equation (1)), where the radioactivity of an organ and injected radioactivity was expressed in MBq, and the weight of a rat and organ was expressed in g. (1) SUV=Radioactivityorgan×weightrat/Radioactivityinjected×weightorgan
# [1] = rat, in vivo, iv
# Experimental: as §1, with “SUV=Radioactivityorgan×weightrat/Radioactivityinjected×weightorgan […]” for “SUV=Radioactivityorgan×weightrat/Radioactivityinjected×weightorgan”
# [2] = design: species or system human; details: in vivo
# Experimental: Human organ and total body absorbed and effective dose estimates were calculated according to the Medical Internal Radionuclide Dose (MIRD) procedure using the measured residence times and the dose rate S-values. The SUV values in rat were first multiplied with the appropriate radioactivity decay factor dependent on the time point of the data post-injection, then multiplied by standard organ masses and divided by the standard total-body weight for the standard adult man phantom obtained from the OLINDA/EXM 1.1 software (Organ Level Internal Dose Assessment Code, Vanderbilt University, Nashville, TN, USA, 2007). The values obtained correspond to the fraction of injected radioactivity (%IA) per organ in man as a function of time (Equation (2), where SUVA is the SUVs of rat organs; gorgan and kgTBweight are respectively the standard organ weight and standard total body weight of a human). (2) (%IAOrgan)human=SUVA×(gorgan/kgTBweight)human
# The cumulative radioactivity for the organs was determined by integrating the area under the time-radioactivity curves for each organ using trapezoidal approximation of the collected kinetic data, followed by extrapolation of remaining points from the last time point to infinity by a single exponential fit. The residence time for each organ is equal to the number of disintegrations (MBq × h/MBq). Bone marrow residence time was assessed according to the bone marrow blood model. The residence time for the remaining carcass was calculated in the same way as for the other organs, and this value was used as input in the OLINDA software as “remainder”. The “remainder” of the body residence time was calculated from SUV due to radioactivity measured in the rest of the body after the removal of the source organs and tail. The difference between the theoretical residence time and the calculated residence time of the source organs plus the remainder of the body was assumed to have been in the tail or excreted. The kidney absorbed dose was calculated based on a multi-region kidney model phantom. The total target organ absorbed dose (D) is contributed by all source organs and is expressed by Equation (3), where Ã is the time-integrated radioactivity in the source tissue (rS) and S is the radionuclide-specific dose rate values: (3) D(rT,t)=∑rSÃ(rS,t)×S(rT←rS,t)
# The similarity of the biodistribution pattern in human and rat and the homogeneous distribution of radioactivity throughout the organ were two basic assumptions considered when extrapolating rat biodistribution data to the human species for the calculation of the absorbed and total effective doses. The organ distribution study was conducted for 120 min. The residence time was determined using the trapezoidal rule, wherein the area from the injection time to the termination time was calculated. […] The values were higher for male animals. This is because the residence time is integrated over the entire tissue using the standardized human dosimetry model of organ volumes, where in the human male model, the muscle volume is around 1.65-times higher than that in the female model (28 vs. 17 kg), and the male model blood volume (5.5 L) is almost 1.5 larger than in the female model (3.8 L). The other tissues are also larger in the male model, but to a lesser extent. During the calculation of the absorbed dose in each tissue (mSv/MBq) by OLINDA, the values are again divided with each tissue’s volume, providing final dose values.
# Absorbed doses and total effective doses were calculated using residence time values as the input into OLINDA/EXM 1.1, the MIRD scheme of an adult (70 kg) and recommended tissue weighting factors from the International Commission on Radiological Protection (ICRP, 2007). The absorbed doses (mGy/MBq) and total effective doses (mSv/MBq) obtained from OLINDA/EXM 1.1 calculations are presented in Table 2. […]
# [3] = Uptake in most of the vital organs, including heart and lung (SUV)
# [4] = Uptake in small and large intestines (SUV)
Structure (SMILES),SUV (in vivo; Kidney uptake (SUV)) [SUV],SUV (in vivo; [3]) [SUV],SUV (in vivo; [4]) [SUV],SUV (in vivo; Uptake in the brain (SUV)) [SUV],SUV at 2 h (in vivo) [SUV],Uptake in most of the organs (SUV) (in vivo),Share of radioactivity accounted for by the single exponential blood clearance phase [1],Effective dose per administration [2],"Estimated absorbed dose, Breasts [2] [mGy/MBq]","Estimated absorbed dose, Uterus [2] [mGy/MBq]",Highest organ absorbed dose (kidneys) [2] [mGy/MBq],Kidney absorbed dose as share of maximum allowed dose of 50 mGy to a single organ [2],PET examinations per year before reaching the red marrow limiting dose [2],Radioactivity before reaching the red marrow limiting dose [2],Radioactivity that could be administered per year if limited by kidney dose [2],Total dose per examination (PET plus CT) [2],other results
"CSCC[C@@H]1NC(=O)[C@H](C(C)C)NC(=O)[C@H](CCCNC(=N)N)NC(=O)CNC(=O)[C@@H]2CCCN2C(=O)[C@@H](NC(=O)COCCOCCNC(=O)CN2CCN(CC(=O)O)CCN(CC(=O)O)CC2)CSSC[C@@H](C(=O)O)NC(=O)[C@@H]2CCCN2C(=O)CNC(=O)[C@H](CCC(=O)O)NC(=O)[C@H](CC(=O)O)NC(=O)[C@H](CC(=O)O)NC(=O)CNC(=O)[C@H](CC(C)C)NC(=O)[C@H](Cc2c[nH]cn2)NC(=O)[C@H](CC(C)C)NC(=O)CNC(=O)[C@H](Cc2c[nH]cn2)NC1=O [[^68Ga]Ga-NO2A-Col, metal not drawn] ({NOTA-AEEA}-CPGRVMHGLHLGDDEGPC-OH; disulfide 1-18)",> 10,< 0.5,< 0.1,< 0.01,< 0.1,below one,over 98%,0.78–1.64 mSv,0.016,0.019,0.1,about 20%,over 1000,over 200 GBq,over 1460 MBq,1.78–2.64,"Absorbed dose in liver and spleen relative to [^68Ga]Ga-NODAGA-Col [2]: two-fold lower; Estimated absorbed dose, Adrenals [2]: 0.009 mGy/MBq"
"CSCC[C@@H]1NC(=O)[C@H](C(C)C)NC(=O)[C@H](CCCNC(=N)N)NC(=O)CNC(=O)[C@@H]2CCCN2C(=O)[C@@H](NC(=O)COCCOCCNC(=O)CCC(C(=O)O)N2CCN(CC(=O)O)CCN(CC(=O)O)CC2)CSSC[C@@H](C(=O)O)NC(=O)[C@@H]2CCCN2C(=O)CNC(=O)[C@H](CCC(=O)O)NC(=O)[C@H](CC(=O)O)NC(=O)[C@H](CC(=O)O)NC(=O)CNC(=O)[C@H](CC(C)C)NC(=O)[C@H](Cc2c[nH]cn2)NC(=O)[C@H](CC(C)C)NC(=O)CNC(=O)[C@H](Cc2c[nH]cn2)NC1=O (some centres unmarked) [[^68Ga]Ga-NODAGA-Col, metal not drawn] ({NODAGA-AEEA}-CPGRVMHGLHLGDDEGPC-OH; disulfide 1-18)",> 10,< 0.5,< 0.1,< 0.01,< 0.1,below one,over 98%,0.78–1.64 mSv,0.016,0.019,0.1,~21%,over 1000,over 200 GBq,over 1460 MBq,1.78–2.64,"Radioactivity that stayed in liver and spleen (in vivo): Over 85%; Estimated absorbed dose, Brain [2]: 0.002 mGy/MBq; Estimated absorbed dose, Spleen [2]: 0.011 mGy/MBq; Increase of liver residence time/absorbed dose versus [^68Ga]Ga-NO2A-Col [2]: 100%"
